Assay results reported in PMC3229523, “Identification of Lactoferricin B Intracellular Targets Using an Escherichia coli Proteome Chip” (PLoS ONE, 2011).
Ends that are not written are not given here. * marks the point of attachment. Biotin = O=C1N[C@H]2[C@H](CS[C@H]2CCCCC(=O)*)N1

Tests used:
Test in all cases: peptide or protein array; E. coli proteome chip: purified His-tagged proteins printed in duplicate on Fullmoon slides, blocked with 1% BSA; 10 nM N-terminal biotinylated LfcinB with 1% BSA, room temperature, 1 h; detected with DyLight 649-labeled streptavidin, ratio to DyLight 549-labeled anti-His antibody; ProCAT normalisation, local cut-off; triplicate chips
Conditions in all cases: both partners purified
MalP = MalP (E. coli K-12, UniProt P00490 1-797)
YdiT = biological target: T1, YdiT (E. coli K-12, UniProt P77714 1-97)
T1 construct: YdiT, E. coli K-12
T1 sequence (looked up): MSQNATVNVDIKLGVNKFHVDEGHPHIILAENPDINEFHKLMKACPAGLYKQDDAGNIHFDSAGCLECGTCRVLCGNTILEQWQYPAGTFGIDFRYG

RhaR = biological target: T2, RhaR (E. coli K-12, UniProt P09378 1-282)
T2 construct: RhaR, E. coli K-12
T2 sequence (looked up): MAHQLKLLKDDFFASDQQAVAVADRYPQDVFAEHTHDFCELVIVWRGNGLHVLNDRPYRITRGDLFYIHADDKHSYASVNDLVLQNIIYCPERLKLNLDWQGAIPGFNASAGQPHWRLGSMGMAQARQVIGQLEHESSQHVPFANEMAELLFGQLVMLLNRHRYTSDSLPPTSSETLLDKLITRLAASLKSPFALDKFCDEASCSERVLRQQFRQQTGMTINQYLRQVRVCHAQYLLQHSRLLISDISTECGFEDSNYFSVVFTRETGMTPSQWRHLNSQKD

RecC = biological target: T3, RecC (E. coli K-12, UniProt P07648 1-1122)
T3 construct: RecC, E. coli K-12
T3 sequence (looked up): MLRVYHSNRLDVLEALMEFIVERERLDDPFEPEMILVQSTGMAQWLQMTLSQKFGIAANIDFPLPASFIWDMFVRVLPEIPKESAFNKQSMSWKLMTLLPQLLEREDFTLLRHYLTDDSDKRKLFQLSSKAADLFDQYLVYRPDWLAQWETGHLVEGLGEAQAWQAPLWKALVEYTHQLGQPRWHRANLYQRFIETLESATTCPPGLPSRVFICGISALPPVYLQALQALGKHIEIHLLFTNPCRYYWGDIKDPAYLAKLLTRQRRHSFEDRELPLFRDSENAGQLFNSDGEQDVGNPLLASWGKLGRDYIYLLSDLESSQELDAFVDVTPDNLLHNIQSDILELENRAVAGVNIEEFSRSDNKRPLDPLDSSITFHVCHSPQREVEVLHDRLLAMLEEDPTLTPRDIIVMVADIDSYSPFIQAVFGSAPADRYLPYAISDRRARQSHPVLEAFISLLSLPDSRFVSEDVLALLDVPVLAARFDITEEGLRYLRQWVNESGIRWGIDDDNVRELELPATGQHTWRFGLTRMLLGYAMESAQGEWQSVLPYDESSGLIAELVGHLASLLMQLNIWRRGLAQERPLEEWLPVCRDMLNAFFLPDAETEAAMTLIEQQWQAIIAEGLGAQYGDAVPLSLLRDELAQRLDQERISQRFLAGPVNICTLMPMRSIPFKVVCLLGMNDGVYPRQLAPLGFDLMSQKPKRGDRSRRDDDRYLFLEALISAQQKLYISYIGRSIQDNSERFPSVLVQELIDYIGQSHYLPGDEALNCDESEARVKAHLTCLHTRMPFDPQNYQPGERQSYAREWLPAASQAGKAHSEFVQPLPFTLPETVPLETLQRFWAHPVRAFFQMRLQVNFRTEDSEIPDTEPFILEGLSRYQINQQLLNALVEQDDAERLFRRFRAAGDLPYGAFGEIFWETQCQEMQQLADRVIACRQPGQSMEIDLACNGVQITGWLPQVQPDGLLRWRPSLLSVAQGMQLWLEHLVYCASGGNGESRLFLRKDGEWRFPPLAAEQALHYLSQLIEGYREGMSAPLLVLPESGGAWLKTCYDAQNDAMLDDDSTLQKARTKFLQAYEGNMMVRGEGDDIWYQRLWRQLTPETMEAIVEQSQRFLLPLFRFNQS

Measured: binding result

B1: N-terminal biotinylated Lactoferricin B (peptide, UniProt P24627 36-60, looked up)
peptide: Biotin-FKCRRWQWRMKKLGAPSITCVRRAF
modifications: ends and bridges not checked
notes: lactoferricin B (LfcinB), cationic antimicrobial peptide of 25 amino acids; also called biotinylated LfcinB; biotin-labeled LfcinB; source: bought: Kelowna Inc
binds: all assays above
